Measurements reported in article PMC9482650, “Quantitative fragmentomics allow affinity mapping of interactomes” (Nature Communications, 2022).

T1: APBA1_2, Q02410
T1 sequence (Q02410 742-832, limits assumed, looked up): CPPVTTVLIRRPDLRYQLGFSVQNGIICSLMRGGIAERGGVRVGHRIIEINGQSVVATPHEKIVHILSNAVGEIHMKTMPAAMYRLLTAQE

T2: CARD11, Q9BXL7
T2 sequence (Q9BXL7 662-765, limits assumed, looked up): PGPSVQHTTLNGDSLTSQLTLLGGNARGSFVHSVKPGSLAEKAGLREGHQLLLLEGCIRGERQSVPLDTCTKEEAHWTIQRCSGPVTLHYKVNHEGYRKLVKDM

T3: LRRC7, Q96NW7
T3 sequence (Q96NW7 1440-1537, limits assumed, looked up): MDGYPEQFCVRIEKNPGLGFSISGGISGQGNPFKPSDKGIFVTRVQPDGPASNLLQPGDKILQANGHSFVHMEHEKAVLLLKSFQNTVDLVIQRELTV

T4: MPP6, Q9NZW5
T4 sequence (Q9NZW5 125-219, limits assumed, looked up): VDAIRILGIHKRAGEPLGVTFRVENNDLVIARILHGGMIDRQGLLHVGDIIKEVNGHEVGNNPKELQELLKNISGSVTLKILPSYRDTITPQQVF

T5: NHERF3_1, Q5T2W1
T5 sequence (Q5T2W1 4-100, limits assumed, looked up): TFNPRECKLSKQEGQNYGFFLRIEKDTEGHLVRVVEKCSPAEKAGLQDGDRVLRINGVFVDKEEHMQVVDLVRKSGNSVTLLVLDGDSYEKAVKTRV

T6: NHERF3_3, Q5T2W1
T6 sequence (Q5T2W1 238-333, limits assumed, looked up): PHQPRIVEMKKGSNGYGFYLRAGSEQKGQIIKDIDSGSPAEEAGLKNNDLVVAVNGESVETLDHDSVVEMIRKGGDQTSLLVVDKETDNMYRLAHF

T7: PARD3B_1, Q8TEW8
T7 sequence (Q8TEW8 196-299, limits assumed, looked up): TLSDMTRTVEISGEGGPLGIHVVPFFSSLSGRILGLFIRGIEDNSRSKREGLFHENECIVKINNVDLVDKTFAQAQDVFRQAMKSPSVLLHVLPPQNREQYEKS

T8: SNTG1, Q9NSN8
T8 sequence (Q9NSN8 52-150, limits assumed, looked up): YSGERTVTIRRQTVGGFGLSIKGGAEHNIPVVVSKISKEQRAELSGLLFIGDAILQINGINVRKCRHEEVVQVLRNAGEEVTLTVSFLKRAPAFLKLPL

T9: SNTG2, Q9NY99
T9 sequence (Q9NY99 68-166, limits assumed, looked up): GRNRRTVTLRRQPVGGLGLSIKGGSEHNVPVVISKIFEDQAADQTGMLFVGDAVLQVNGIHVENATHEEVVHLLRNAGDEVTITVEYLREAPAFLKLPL


Tests used:
Test in all cases: holdup assay
Design in all cases: key: below the threshold = too weak to quantify, mostly under pKd 3.1 to 4
Conditions in all cases: plain residues with an end cap or a label only (N-terminal biotin on a linker: ado-ado)
[1] = molecular target: AHNAK1, Q09666
[2] = molecular target: T1, APBA1_2, Q02410
[3] = molecular target: T2, CARD11, Q9BXL7
[4] = molecular target: DLG1_3, Q12959
[5] = molecular target: DLG2_2, Q15700
[6] = molecular target: DLG5_1, Q8TDM6
[7] = molecular target: GRASP, Q7Z6J2
[8] = molecular target: GRIP2_6, Q9C0E4
[9] = molecular target: IL16_1, Q14005
[10] = molecular target: IL16_4, Q14005
[11] = molecular target: Inadl_3, Q8NI35
[12] = molecular target: LDB3, O75112
[13] = molecular target: LIMK2, P53671
[14] = molecular target: LNX1_1, Q8TBB1
[15] = molecular target: T3, LRRC7, Q96NW7
[16] = molecular target: MAGI2_3, Q86UL8
[17] = molecular target: T4, MPP6, Q9NZW5
[18] = molecular target: T5, NHERF3_1, Q5T2W1
[19] = molecular target: T6, NHERF3_3, Q5T2W1
[20] = molecular target: NHERF4_4, Q86UT5
[21] = molecular target: T7, PARD3B_1, Q8TEW8
[22] = molecular target: PICK1, Q9NRD5
[23] = molecular target: PTPN3, P26045
[24] = molecular target: SCRIB_1, Q14160
[25] = molecular target: SCRIB_3, Q14160
[26] = molecular target: T8, SNTG1, Q9NSN8
[27] = molecular target: T9, SNTG2, Q9NY99
[28] = molecular target: TJP1_3, Q07157
TJP1_3, Q07157, sequence (Q07157 416-512): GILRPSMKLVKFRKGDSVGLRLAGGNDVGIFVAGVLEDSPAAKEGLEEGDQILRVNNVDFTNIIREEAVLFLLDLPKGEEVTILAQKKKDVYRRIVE

SCRIB_3, Q14160, sequence (Q14160 999-1103): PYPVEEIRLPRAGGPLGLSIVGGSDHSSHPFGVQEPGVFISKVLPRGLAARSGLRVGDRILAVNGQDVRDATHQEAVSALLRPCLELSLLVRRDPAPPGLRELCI
PTPN3, P26045, sequence (P26045 505-587): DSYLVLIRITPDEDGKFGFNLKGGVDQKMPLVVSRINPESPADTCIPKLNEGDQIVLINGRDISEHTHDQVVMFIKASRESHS
IL16_4, Q14005, sequence (Q14005 1229-1329): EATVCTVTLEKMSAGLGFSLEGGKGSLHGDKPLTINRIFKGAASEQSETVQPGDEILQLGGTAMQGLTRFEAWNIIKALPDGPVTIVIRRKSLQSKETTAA
LNX1_1, Q8TBB1, sequence (Q8TBB1 261-371): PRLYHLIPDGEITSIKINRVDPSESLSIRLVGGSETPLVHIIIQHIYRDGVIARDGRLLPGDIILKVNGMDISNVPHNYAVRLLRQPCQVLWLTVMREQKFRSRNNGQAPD
IL16_1, Q14005, sequence (Q14005 210-306): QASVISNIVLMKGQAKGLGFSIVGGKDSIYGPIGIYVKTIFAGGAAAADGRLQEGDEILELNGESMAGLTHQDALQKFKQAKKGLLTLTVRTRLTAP
DLG2_2, Q15700, sequence (Q15700 189-283): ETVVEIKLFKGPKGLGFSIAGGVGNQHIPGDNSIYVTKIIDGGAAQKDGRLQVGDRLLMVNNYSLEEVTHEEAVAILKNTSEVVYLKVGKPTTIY
MAGI2_3, Q86UL8, sequence (Q86UL8 600-682): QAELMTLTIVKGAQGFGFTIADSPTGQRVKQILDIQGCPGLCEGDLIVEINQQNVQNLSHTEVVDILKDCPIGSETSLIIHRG
GRIP2_6, Q9C0E4, sequence (Q9C0E4 648-740): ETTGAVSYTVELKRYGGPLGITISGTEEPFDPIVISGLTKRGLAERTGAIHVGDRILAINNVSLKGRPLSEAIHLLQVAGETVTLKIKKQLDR
LDB3, O75112, sequence (O75112 1-94): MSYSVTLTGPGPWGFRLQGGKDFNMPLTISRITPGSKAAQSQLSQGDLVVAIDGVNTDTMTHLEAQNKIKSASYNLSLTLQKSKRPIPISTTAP
LIMK2, P53671, sequence (P53671 143-248): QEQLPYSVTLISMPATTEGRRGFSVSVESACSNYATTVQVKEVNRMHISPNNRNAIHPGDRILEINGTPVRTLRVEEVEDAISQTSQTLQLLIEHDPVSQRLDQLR
Inadl_3, Q8NI35, sequence (Q8NI35 359-469): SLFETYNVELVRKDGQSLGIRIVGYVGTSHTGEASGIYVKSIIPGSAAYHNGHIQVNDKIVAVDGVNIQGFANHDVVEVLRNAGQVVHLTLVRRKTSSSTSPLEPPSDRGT
NHERF4_4, Q86UT5, sequence (Q86UT5 464-550): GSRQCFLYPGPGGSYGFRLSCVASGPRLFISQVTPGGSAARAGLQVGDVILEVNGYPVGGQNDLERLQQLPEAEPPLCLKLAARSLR
AHNAK1, Q09666, sequence (Q09666 4-100): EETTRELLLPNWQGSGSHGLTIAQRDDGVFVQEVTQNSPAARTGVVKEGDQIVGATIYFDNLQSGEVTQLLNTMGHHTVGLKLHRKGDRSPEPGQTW
SCRIB_1, Q14160, sequence (Q14160 718-814): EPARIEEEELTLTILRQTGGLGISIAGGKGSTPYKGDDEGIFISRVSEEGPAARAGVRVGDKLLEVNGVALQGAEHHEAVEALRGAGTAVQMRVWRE
DLG1_3, Q12959, sequence (Q12959 457-571): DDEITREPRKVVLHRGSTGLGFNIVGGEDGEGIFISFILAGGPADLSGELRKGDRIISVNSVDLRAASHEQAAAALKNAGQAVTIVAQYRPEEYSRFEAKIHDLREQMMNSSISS
DLG5_1, Q8TDM6, sequence (Q8TDM6 617-713): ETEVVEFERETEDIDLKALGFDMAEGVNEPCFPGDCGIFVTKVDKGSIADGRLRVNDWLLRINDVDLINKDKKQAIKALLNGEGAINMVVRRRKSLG
PICK1, Q9NRD5, sequence (Q9NRD5 17-115): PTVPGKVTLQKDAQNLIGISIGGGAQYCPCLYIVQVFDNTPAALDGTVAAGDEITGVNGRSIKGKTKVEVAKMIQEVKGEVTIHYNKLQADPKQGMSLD
GRASP, Q7Z6J2, sequence (Q7Z6J2 96-193): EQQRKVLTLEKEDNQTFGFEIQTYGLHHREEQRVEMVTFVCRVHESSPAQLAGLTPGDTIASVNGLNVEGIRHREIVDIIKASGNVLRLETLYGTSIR

Binder	pKd [1]	pKd [2]	pKd [3]	pKd [4]	pKd [5]	pKd [6]	pKd [7]	pKd [8]	pKd [9]	pKd [10]	pKd [11]	pKd [12]	pKd [13]	pKd [14]	pKd [15]	pKd [16]	pKd [17]	pKd [18]	pKd [19]	pKd [20]	further results
QLGSPTADLA [SIPA1, Q96FS4]	below the threshold	below the threshold	below the threshold	below the threshold	below the threshold	below the threshold	below the threshold	below the threshold	below the threshold	below the threshold	below the threshold	below the threshold	below the threshold	below the threshold	below the threshold	3.56	below the threshold	below the threshold	below the threshold	below the threshold	pKd [21]: below the threshold; pKd [22]: below the threshold; pKd [23]: below the threshold; pKd [24]: below the threshold; pKd [25]: below the threshold; pKd [26]: below the threshold; pKd [27]: below the threshold; pKd [28]: below the threshold
RGKNRRQSIF [CDK18, Q07002]	below the threshold	3.47	below the threshold	3.71	3.5	below the threshold	3.81	below the threshold	below the threshold	below the threshold	below the threshold	below the threshold	below the threshold	3.95	below the threshold	3.64	below the threshold	3.85	below the threshold	below the threshold	pKd [21]: 3.89; pKd [22]: 4.17; pKd [23]: 3.77; pKd [24]: below the threshold; pKd [25]: 3.65; pKd [26]: below the threshold; pKd [27]: below the threshold; pKd [28]: below the threshold
VISSDDLTEL [CAPN6, Q9Y6Q1]	below the threshold	3.79	below the threshold	below the threshold	below the threshold	below the threshold	4.21	below the threshold	below the threshold	3.7	below the threshold	3.53	below the threshold	below the threshold	below the threshold	3.68	below the threshold	3.67	below the threshold	below the threshold	pKd [21]: below the threshold; pKd [22]: below the threshold; pKd [23]: 4.12; pKd [24]: 3.6; pKd [25]: 3.86; pKd [26]: below the threshold; pKd [27]: below the threshold; pKd [28]: below the threshold

Now from value to binder, other results behind:

pKd [1]	pKd [2]	pKd [3]	pKd [4]	pKd [5]	pKd [6]	pKd [7]	pKd [8]	pKd [9]	pKd [10]	pKd [11]	pKd [12]	pKd [13]	pKd [14]	pKd [15]	pKd [16]	pKd [17]	pKd [18]	pKd [19]	pKd [20]	Binder	further results
below the threshold	3.62	below the threshold	4.15	5.38	3.72	3.76	3.86	3.48	below the threshold	below the threshold	below the threshold	below the threshold	4.06	below the threshold	3.82	below the threshold	3.63	below the threshold	below the threshold	THHRKIHTRV [ZNF599, Q96NL3]	pKd [21]: below the threshold; pKd [22]: below the threshold; pKd [23]: below the threshold; pKd [24]: 3.98; pKd [25]: 3.75; pKd [26]: 3.61; pKd [27]: 4.13; pKd [28]: below the threshold
below the threshold	4.89	below the threshold	below the threshold	below the threshold	below the threshold	5.28	below the threshold	below the threshold	below the threshold	4.35	4.47	below the threshold	4.13	4.31	3.48	3.9	5.05	4.12	4.21	NKSEPFLTWL [WWTR1, Q9GZV5]	pKd [21]: 4.57; pKd [22]: below the threshold; pKd [23]: 4.74; pKd [24]: 4.63; pKd [25]: 5.14; pKd [26]: below the threshold; pKd [27]: below the threshold; pKd [28]: below the threshold
